Data as given in patent US20250129167A1.

Target: PD-L1 on CHO-PD-L1 cells (Promega blockade system) (UniProt Q9NZQ7)
Sequence (Q9NZQ7 19-290 limits assumed): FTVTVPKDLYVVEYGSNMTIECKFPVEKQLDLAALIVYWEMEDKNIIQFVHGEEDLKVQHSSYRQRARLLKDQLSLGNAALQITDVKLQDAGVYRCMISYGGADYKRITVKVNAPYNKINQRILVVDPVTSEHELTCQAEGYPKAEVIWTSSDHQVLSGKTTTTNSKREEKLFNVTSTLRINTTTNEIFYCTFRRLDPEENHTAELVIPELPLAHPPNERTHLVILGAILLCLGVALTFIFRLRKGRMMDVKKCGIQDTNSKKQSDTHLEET

- EC50 (read off the curve); luciferase fold induction, Promega CHO-PD-L1 / PD-1 Jurkat assay: 0.1 nM
Substance: Tecentriq (antibody)
